Source: US20020155542A1, “Inhibitors for suppressing the activity of proteins displaying CIITA activity, methods for their identification and pharmaceutical compositions” (priority 1994, published 2002)

Columns and labels:
[1] = system: human T cell clones T-50 and T-87; experiment: Peptide-specific T cell activation with melanoma cells as antigen-presenting cells, H3-thymidine incorporation; type: cell-based; details: melanoma cells as APC, tetanus toxoid peptide p4; CIITA transfected vs 48 hours interferon gamma
Description: FIG. 9. Activation of human T cell clones with transfectants and interferon-stimulated cells used as APC's. Three types of cells were tested as APC'S: Untransfected melanoma cell line, MHC class II negative (o); The same cell line following 48 hours of exposure to […] of interferon gamma, MHC class II positive (black square ); The same cell line previously transfected with CIITA cDNA, MHC class it positive (black triangle). These cells were treated with various concentrations of p4, a tetanus toxoid peptide, at the concentrations indicated, fixed by UV light and incubated with two different human T cell clones specific for that peptide, T-50 and T-87. The extent of T cell activation was measured by incorporation of […] in a standard assay, and expressed as “stimulation index”.
Cells where the expression of MHC class II molecules had been induced by the transactivator gene CIITA (as CIITA cDNA) were tested for their ability to bind exogenously provided peptides and to present such peptides to T cell clones. These CIITA transfectants were compared with the same cells where MHC class II expression had been induced by interferon gamma. […] Peptide-specific T cell activation by these two types of MHC class II positive cells was measured by H3-thymidine incorporation, expressed as a stimulation index. […]

[2] = system: MHC class II positive cells; experiment: Peptide binding ability of MHC class II positive melanoma cells; type: cell-based, human; details: CIITA transfectants vs interferon activated
Description: Cells where the expression of MHC class II molecules had been induced by the transactivator gene CIITA (as CIITA cDNA) were tested for their ability to bind exogenously provided peptides and to present such peptides to T cell clones. These CIITA transfectants were compared with the same cells where MHC class II expression had been induced by interferon gamma. The two types of cells expressed MHC class II molecules at the surface at a similar level. […] Peptide-specific T cell activation by these two types of MHC class II positive cells was measured by H3-thymidine incorporation, expressed as a stimulation index. In this particular experiment, melanoma cells were used as antigen-presenting cells.
In agreement with these functional results, the peptide binding ability of these two types of MHC class II positive cells was drastically different, being low in the interferon activated cells and high in the CIITA transfectants. Thus, CIITA induces the expression of MHC class II molecules that are unusual in their highly efficient capacity to bind and to present peptides to T lymphocytes, leading to activation of these lymphocytes.

B1: interferon gamma (protein, UniProt P01579 24-161, looked up)
Interferon gamma: QDPYVKEAENLKKYFNAGHSDVADNGTLFLGILKNWKEESDRKIMQSQIVSFYFKLFKNFKDDQSIQKSVETIKEDMNVKFFNSNKKKRDDFEKLTNYSVTDLNVQRKAIHELIQVMAELSPAAKTGKRKRSQMLFRG
notes: lymphokine used to induce MHC class II expression in melanoma cells, comparator to CIITA transfection
- peptide-specific T cell activation (stimulation index) [1]: failed to induce significant T cell activation
- peptide binding ability [2]: low
